Source: publication PMC10397247
One block for each binder: values may come before it.

Assays:
Assay in all cases: two-hybrid library CCmax;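 further: natural log of median RNA to DNA barcode read ratio; higher means stronger binding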
[1] = molecular target: T1, 4H2617-AA; conditions: mean of both orientations
T1 chain: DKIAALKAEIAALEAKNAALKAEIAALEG

[2] = molecular target: T2, 4H2949-AA; conditions: mean of both orientations
T2 chain: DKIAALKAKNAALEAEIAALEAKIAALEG

[3] = molecular target: T3, 4H3427-AA; conditions: mean of both orientations
T3 chain: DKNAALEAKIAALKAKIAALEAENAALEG

[4] = molecular target: T4, 4H234-AA
T4 chain: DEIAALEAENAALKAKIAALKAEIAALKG

[5] = molecular target: T5, 4H906-AA; conditions: mean of both orientations
T5 chain: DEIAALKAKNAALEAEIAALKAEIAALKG

[6] = molecular target: T6, 4H2642-AA; conditions: mean of both orientations
T6 chain: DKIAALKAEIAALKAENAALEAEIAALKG

[7] = molecular target: T7, 4H2505-AA; conditions: mean of both orientations
T7 chain: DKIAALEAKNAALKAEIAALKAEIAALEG

[8] = molecular target: T8, 4H335-AA
T8 chain: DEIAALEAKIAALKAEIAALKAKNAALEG

[9] = molecular target: T9, 4H317-AA; conditions: mean of both orientations
T9 chain: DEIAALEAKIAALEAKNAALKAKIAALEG

[10] = molecular target: T10, 4H678-AA; conditions: mean of both orientations
T10 chain: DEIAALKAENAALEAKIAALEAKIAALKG

[11] = molecular target: T11, 4H454-AA; conditions: mean of both orientations
T11 chain: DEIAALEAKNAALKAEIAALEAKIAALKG

[12] = molecular target: T12, 4H2754-AA; conditions: mean of both orientations
T12 chain: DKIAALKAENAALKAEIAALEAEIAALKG

[13] = molecular target: T13, 4H794-AA; conditions: mean of both orientations
T13 chain: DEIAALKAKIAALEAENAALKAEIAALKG

[14] = molecular target: T14, 4H3655-AA; conditions: mean of both orientations
T14 chain: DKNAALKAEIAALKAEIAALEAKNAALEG

[15] = molecular target: T15, 4H3343-AA; conditions: mean of both orientations
T15 chain: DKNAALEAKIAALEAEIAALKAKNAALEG

[16] = molecular target: T16, 4H881-AA; conditions: mean of both orientations
T16 chain: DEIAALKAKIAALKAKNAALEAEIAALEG

[17] = molecular target: T17, 4H3112-AA; conditions: mean of both orientations
T17 chain: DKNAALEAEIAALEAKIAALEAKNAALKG

[18] = molecular target: T18, 4H2466-AA; conditions: mean of both orientations
T18 chain: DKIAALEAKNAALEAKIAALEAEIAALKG

[19] = molecular target: T19, 4H717-AA; conditions: mean of both orientations
T19 chain: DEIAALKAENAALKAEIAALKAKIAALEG

[20] = molecular target: T20, 4H2354-AA; conditions: mean of both orientations
T20 chain: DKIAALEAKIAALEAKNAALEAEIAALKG

[21] = molecular target: T21, 4H3606-AA; conditions: mean of both orientations
T21 chain: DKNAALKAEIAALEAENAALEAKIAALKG

[22] = molecular target: T22, 4H993-AA; conditions: mean of both orientations
T22 chain: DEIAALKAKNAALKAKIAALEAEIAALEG

[23] = molecular target: T23, 4H3627-AA; conditions: mean of both orientations
T23 chain: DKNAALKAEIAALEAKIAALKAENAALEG

[24] = molecular target: T24, 4H2575-AA; conditions: mean of both orientations
T24 chain: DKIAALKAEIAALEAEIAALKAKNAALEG

[25] = molecular target: T25, 4H2729-AA; conditions: mean of both orientations
T25 chain: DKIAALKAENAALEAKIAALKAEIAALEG

[26] = molecular target: T26, 4H48-AA; conditions: mean of both orientations
T26 chain: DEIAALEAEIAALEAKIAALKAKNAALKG

[27] = molecular target: T27, 4H3921-AA; conditions: mean of both orientations
T27 chain: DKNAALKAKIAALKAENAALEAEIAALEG

[28] = molecular target: T28, 4H566-AA; conditions: mean of both orientations
T28 chain: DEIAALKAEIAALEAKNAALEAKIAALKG

[29] = molecular target: T29, 4H2883-AA; conditions: mean of both orientations
T29 chain: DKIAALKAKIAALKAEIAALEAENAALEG

[30] = molecular target: T30, 4H2837-AA; conditions: mean of both orientations
T30 chain: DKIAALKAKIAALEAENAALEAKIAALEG

[31] = molecular target: T31, 4H780-AA; conditions: mean of both orientations
T31 chain: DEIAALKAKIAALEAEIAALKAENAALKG

[32] = molecular target: T32, 4H2393-AA; conditions: mean of both orientations
T32 chain: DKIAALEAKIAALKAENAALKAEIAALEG

[33] = molecular target: T33, 4H2944-AA; conditions: mean of both orientations
T33 chain: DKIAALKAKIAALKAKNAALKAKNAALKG

[34] = molecular target: T34, 4H605-AA; conditions: mean of both orientations
T34 chain: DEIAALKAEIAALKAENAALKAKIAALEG

[35] = molecular target: T35, 4H3844-AA; conditions: mean of both orientations
T35 chain: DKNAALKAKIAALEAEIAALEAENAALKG

[36] = molecular target: T36, 4H342-AA
T36 chain: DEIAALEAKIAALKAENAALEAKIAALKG

[37] = molecular target: T37, 4H429-AA; conditions: mean of both orientations
T37 chain: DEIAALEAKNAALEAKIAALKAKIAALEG

[38] = molecular target: T38, APC4336-AA; conditions: mean of both orientations
T38 chain: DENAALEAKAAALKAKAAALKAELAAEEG

[39] = molecular target: T39, APC8516-AA; conditions: mean of both orientations
T39 chain: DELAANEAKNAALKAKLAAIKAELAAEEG

[40] = molecular target: T40, APC4100-AA; conditions: mean of both orientations
T40 chain: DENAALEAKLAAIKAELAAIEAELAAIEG

[41] = molecular target: T41, APC9291-AA; conditions: mean of both orientations
T41 chain: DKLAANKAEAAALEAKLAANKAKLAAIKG

[42] = molecular target: T42, APC9806-AA; conditions: mean of both orientations
T42 chain: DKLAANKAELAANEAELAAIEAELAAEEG

[43] = molecular target: T43, APC8401-AA; conditions: mean of both orientations
T43 chain: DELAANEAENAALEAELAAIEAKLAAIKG

[44] = molecular target: T44, APC7524-AA; conditions: mean of both orientations
T44 chain: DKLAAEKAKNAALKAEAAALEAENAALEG

[45] = molecular target: T45, APC6088-AA; conditions: mean of both orientations
T45 chain: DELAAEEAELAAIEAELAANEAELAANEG

[46] = molecular target: T46, APC5531-AA; conditions: mean of both orientations
T46 chain: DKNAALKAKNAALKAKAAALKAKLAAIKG

[47] = molecular target: T47, APC5009-AA; conditions: mean of both orientations
T47 chain: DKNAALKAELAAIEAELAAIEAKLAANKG

[48] = molecular target: T48, APC3881-AA; conditions: mean of both orientations
T48 chain: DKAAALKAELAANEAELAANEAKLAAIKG

[49] = molecular target: T49, APC9141-AA; conditions: mean of both orientations
T49 chain: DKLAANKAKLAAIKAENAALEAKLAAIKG

[50] = molecular target: T50, APC3354-AA
T50 chain: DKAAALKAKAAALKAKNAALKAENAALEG

[51] = molecular target: T51, APC542-AA; conditions: mean of both orientations
T51 chain: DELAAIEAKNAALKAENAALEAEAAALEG

[52] = molecular target: T52, APC9182-AA; conditions: mean of both orientations
T52 chain: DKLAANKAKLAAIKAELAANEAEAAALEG

interaction score [1]: -1.32 | interaction score [2]: 1.73 | interaction score [3]: -1.32 | interaction score [4]: 1.91 | interaction score [5]: 0.324 | interaction score [6]: 0.56 | interaction score [7]: 1.67 | interaction score [8]: -1.24 | interaction score [9]: -1.11 | interaction score [10]: 1.31 | interaction score [11]: 1.79 | interaction score [12]: 2.04 | interaction score [13]: -1.24 | interaction score [14]: -0.983 | interaction score [15]: -0.996 | interaction score [16]: -1.05 | interaction score [17]: -1.22 | interaction score [18]: -0.379 | interaction score [19]: 0.359 | interaction score [20]: -0.425 | interaction score [21]: -0.346 | interaction score [22]: 1.77 | interaction score [23]: -0.624 | interaction score [24]: -0.746 | interaction score [25]: 1.8 | interaction score [26]: -0.786 | interaction score [27]: 0.388 | interaction score [28]: 0.581 | interaction score [29]: -1.27 | interaction score [30]: -1.08 | interaction score [31]: -1.42 | interaction score [32]: 0.577 | interaction score [33]: -1.71 | interaction score [34]: -1.45 | interaction score [35]: -1.28 | interaction score [36]: 0.11 | interaction score [37]: -1.25
B1: 4H234-AA (peptide)
chain: DEIAALEAENAALKAKIAALKAEIAALKG

interaction score [38]: -2.08 | interaction score [39]: -1.98 | interaction score [40]: -1.66 | interaction score [41]: -1.68 | interaction score [42]: -1.33 | interaction score [43]: -1.48 | interaction score [44]: -1.71 | interaction score [45]: -1.77 | interaction score [46]: -1.92 | interaction score [47]: -1.49 | interaction score [48]: -1.72 | interaction score [49]: -1.68 | interaction score [50]: -1.59 | interaction score [51]: -1.89 | interaction score [52]: -1.72
B2: APC3354-AA (peptide)
chain: DKAAALKAKAAALKAKNAALKAENAALEG
